Experimental data: patent US12043658B2, “Conjugate comprising an active MMP-9-binding peptide” (Daiichi Sankyo Company, Limited, priority 2017, dated 2024)
Each block holds one molecule with its values, some of them ahead of it.

Columns and labels:
[1] = biological target: T1, active hMMP-9(cat)_R424T (Homo sapiens, UniProt P14780, R424T); test: Inhibition of human MMP-9 mutant R424T; type: biochemical
T1 construct: of the enzyme active domain (Phe107-Pro449) were constructed; His tag (ahead of the propeptide in the precursor) (N, cleaved yes); made in house; host or cells: FreeStyle 293F
Experimental: (§1) The substrate peptide MOCAc-KPLGL-A2pr(Dnp)-AR-NH2 (SEQ ID NO: 30 (FIG. 46)) (PEPTIDE […], INC.; 3226-v) was dissolved in water to 1 mM, then diluted with an assay buffer (50 mM Tris-HCl, 200 mM NaCl, 2 mM CaCl2, pH7.5) and used at the final concentration of 10 μM. 50 μl each of the active hMMP-9(cat) diluted with the assay buffer or the active hMMP-9(cat)_XnnnY and the active MMP-9-binding peptide or sc-311438 (Santa Cruz Biotechnology, Inc.) were mixed, and reacted at 37° C. for 1 hour. Then, 100 μl of the substrate diluted with the assay buffer was added, and fluorescence signals (excitation 328 nm/emission 393 nm) were measured with Enspire (PerkinElmer, Inc.). The final concentrations of the active hMMP-9(cat) and the active hMMP-9(cat)_XnnnY were at 1 nM, and the final concentrations of the active MMP-9-binding peptide and sc-311438 were at 0.5 to 330 nM. For reactions and measurements, a ProteoSave™ SS96F black plate (Sumitomo Bakelite Co., Ltd.) was used.
(§2) The 50% inhibitory concentration (IC50) of each binding peptide was calculated using GraphPad Prism (version 5.0; GraphPad Software), by calculating the substrate peptide degradation rate of the active MMP-9-binding peptide at each concentration, and taking the degradation rate at an inhibitor concentration of 0 nM as 100% (FIGS. 54(A) and 54(B)). […]

[2] = biological target: T2, active hMMP-9(cat)_M422I (Homo sapiens, UniProt P14780, M422I); test: Inhibition of human MMP-9 mutant M422I; type: biochemical
T2 construct: of the enzyme active domain (Phe107-Pro449) were constructed; His tag (before the propeptide) (N, cleaved yes); made in house; host or cells: FreeStyle 293F
Experimental: as §1, §2

[3] = biological target: T3, active hMMP-9(cat)_L397A (Homo sapiens, UniProt P14780, L397A); test: Inhibition of human MMP-9 mutant L397A; type: biochemical
T3 construct: of the enzyme active domain (Phe107-Pro449) were constructed; His tag (before the propeptide) (N, cleaved yes); made in house; host or cells: FreeStyle 293F
Experimental: as §1, §2

[4] = biological target: active human MMP-9 enzyme active domain (Homo sapiens, UniProt P14780); test: Size exclusion chromatography binding to active hMMP-9(cat)_His6; parameters: an enzyme active domain (Phe107-Pro449) and a His tag; made in house; host or cells: FreeStyle 293F; conditions: 25 μM enzyme, 75 μM inhibitor
Experimental: (§3) With M91005 and M91011 prepared in (1-2), active hMMP-9(cat)_His6 prepared in (2-1-4), and hMMP-9(cat)_E402Q_His6 prepared in (11-3), the binding activity was evaluated by size exclusion chromatography. 25 μM active hMMP-9(cat)_His6 or hMMP-9(cat)_E402Q_His6 and 75 μM active MMP-9-binding peptide or hTIMP-1 (in-house preparation) were mixed, and reacted at 4° C. for 1 hour. After the reaction, 10 μl of the reaction solution was analyzed by size exclusion chromatography. The chromatographic conditions were as follows.
(§4) Detection: Absorbance (280 nm)
(§5) When only active hMMP-9(cat)_His6 was analyzed, the peak of active hMMP-9(cat)_His6 was detected at a retention time of 7.0 minutes (FIG. 53(A)). When a mixture reaction solution of active hMMP-9(cat)_His6 and hTIMP-1 or active MMP-9-binding peptides M91005 or M91011 was analyzed, the retention time of the peak of active hMMP-9(cat)_His6 was shifted to the high molecular weight side (FIG. 53(A)). […] When only human MMP-9(cat)_E402Q_His6 was analyzed, the peak of hMMP-9(cat)_E402Q_His6 was detected at a retention time of 7.1 minutes (FIG. 53(B)). When a mixed reaction solution of human MMP-9(cat)_E402Q_His6 and hTIMP-1 was analyzed, the retention time of the peak of hMMP-9(cat)_E402Q_His6 was shifted to the high molecular weight side (FIG. 53(B)). […] In contrast, when a mixture reaction solution of hMMP-9(cat)_E402Q_His6 and the active MMP-9-binding peptide M91005 or M91011 was analyzed, the retention time of the peak of the hMMP-9(cat)_E402Q_His6 was not changed (FIG. 53(B)). It should be noted that when only hTIMP-1 or the active MMP-9-binding peptides M91005, M91011 was analyzed, the peak of hTIMP-1 was detected at a retention time of 7.3 minutes, the peak of the active MMP-9-binding peptide M91005 was detected at a retention time of 8.2 minutes, and the peak of the active MMP-9-binding peptide M91011 was detected at a retention time of 8.1 minutes (FIG. 53(C)).

[5] = biological target: T4, active hMMP-9(cat)_Y179A (Homo sapiens, UniProt P14780, Y179A); test: Inhibition of human MMP-9 mutant Y179A; type: biochemical
T4 construct: of the enzyme active domain (Phe107-Pro449) were constructed; His tag (before the propeptide) (N, cleaved yes); made in house; host or cells: FreeStyle 293F
Experimental: as §1, §2

[6] = biological target: T5, human MMP-9 enzyme active domain E402Q mutant (Homo sapiens, UniProt P14780, E402Q); test: Size exclusion chromatography binding to hMMP-9(cat)_E402Q_His6; conditions: 25 μM enzyme, 75 μM inhibitor
T5 construct: an enzyme active domain E402Q mutant (Phe107-Pro449, E402Q) and a His tag; made in house; host or cells: FreeStyle 293F
Experimental: as §3, §4, §5

[7] = biological target: T6, active hMMP-9(cat)_P193A (Homo sapiens, UniProt P14780, P193A); test: Inhibition of human MMP-9 mutant P193A; type: biochemical
T6 construct: of the enzyme active domain (Phe107-Pro449) were constructed; His tag (before the propeptide) (N, cleaved yes); made in house; host or cells: FreeStyle 293F
Experimental: as §1, §2

[8] = biological target: T7, active hMMP-9(cat)_F192A (Homo sapiens, UniProt P14780, F192A); test: Inhibition of human MMP-9 mutant F192A; type: biochemical
T7 construct: of the enzyme active domain (Phe107-Pro449) were constructed; His tag (before the propeptide) (N, cleaved yes); made in house; host or cells: FreeStyle 293F
Experimental: as §1, §2

[9] = biological target: T8, active hMMP-9(cat)_D185A (Homo sapiens, UniProt P14780, D185A); test: Inhibition of human MMP-9 mutant D185A; type: biochemical
T8 construct: of the enzyme active domain (Phe107-Pro449) were constructed; His tag (before the propeptide) (N, cleaved yes); made in house; host or cells: FreeStyle 293F
Experimental: as §1, §2

[10] = biological target: T9, active hMMP-9(cat)_Y393A (Homo sapiens, UniProt P14780, Y393A); test: Inhibition of human MMP-9 mutant Y393A; type: biochemical
T9 construct: of the enzyme active domain (Phe107-Pro449) were constructed; His tag (before the propeptide) (N, cleaved yes); made in house; host or cells: FreeStyle 293F
Experimental: as §1, §2

[11] = biological target: T10, active hMMP-9(cat)_Y423A (Homo sapiens, UniProt P14780, Y423A); test: Inhibition of human MMP-9 mutant Y423A; type: biochemical
T10 construct: of the enzyme active domain (Phe107-Pro449) were constructed; His tag (ahead of the propeptide in the precursor) (N, cleaved yes); made in house; host or cells: FreeStyle 293F
Experimental: as §1, §2

[12] = biological target: T11, active hMMP-9(cat)_V398A (Homo sapiens, UniProt P14780, V398A); test: Inhibition of human MMP-9 mutant V398A; type: biochemical
T11 construct: of the enzyme active domain (Phe107-Pro449) were constructed; His tag (before the propeptide) (N, cleaved yes); made in house; host or cells: FreeStyle 293F
Experimental: as §1, §2

[13] = biological target: T12, wild-type active hMMP-9(cat) (Homo sapiens, UniProt P14780); test: Inhibition of wild-type active hMMP-9(cat), substrate peptide; type: biochemical; conditions: wild-type active hMMP-9(cat) 1 nM, substrate peptide 10 μM
T12 construct: and an enzyme active domain (Phe107-Pro449) was constructed; His tag (before the propeptide) (N, cleaved yes); made in house; host or cells: FreeStyle 293F
Experimental: as §1, §2

[14] = biological target: T13, active hMMP-9(cat)_L187A (Homo sapiens, UniProt P14780, L187A); test: Inhibition of human MMP-9 mutant L187A; type: biochemical
T13 construct: of the enzyme active domain (Phe107-Pro449) were constructed; His tag (before the propeptide) (N, cleaved yes); made in house; host or cells: FreeStyle 293F
Experimental: as §1, §2

[15] = biological target: T14, active hMMP-9(cat)_F110A (Homo sapiens, UniProt P14780, F110A); test: Inhibition of human MMP-9 mutant F110A; type: biochemical
T14 construct: of the enzyme active domain (Phe107-Pro449) were constructed; His tag (before the propeptide) (N, cleaved yes); made in house; host or cells: FreeStyle 293F
Experimental: as §1, §2

[16] = biological target: T15, active hMMP-9(cat)_Y420A (Homo sapiens, UniProt P14780, Y420A); test: Inhibition of human MMP-9 mutant Y420A; type: biochemical
T15 construct: of the enzyme active domain (Phe107-Pro449) were constructed; His tag (before the propeptide) (N, cleaved yes); made in house; host or cells: FreeStyle 293F
Experimental: as §1, §2

[17] = biological target: T16, active hMMP-9(cat)_Q199G (Homo sapiens, UniProt P14780, Q199G); test: Inhibition of human MMP-9 mutant Q199G; type: biochemical
T16 construct: of the enzyme active domain (Phe107-Pro449) were constructed; His tag (before the propeptide) (N, cleaved yes); made in house; host or cells: FreeStyle 293F
Experimental: as §1, §2

T7 sequence (P14780 107-449 F192A): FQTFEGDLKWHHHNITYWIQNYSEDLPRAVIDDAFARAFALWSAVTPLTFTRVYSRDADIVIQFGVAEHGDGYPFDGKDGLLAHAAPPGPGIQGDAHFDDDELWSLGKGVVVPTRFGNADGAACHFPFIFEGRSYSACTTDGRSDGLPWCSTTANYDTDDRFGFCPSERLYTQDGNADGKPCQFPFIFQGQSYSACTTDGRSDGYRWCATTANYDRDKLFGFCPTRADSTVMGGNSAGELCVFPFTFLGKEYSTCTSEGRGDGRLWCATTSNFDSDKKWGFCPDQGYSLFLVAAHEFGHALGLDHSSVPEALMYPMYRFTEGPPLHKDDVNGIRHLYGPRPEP
T2 sequence (P14780 107-449 M422I): as the sequence (P14780 107-449 F192A) above, with A86F, M316I counted along it
T12 sequence (P14780 107-449): as the sequence (P14780 107-449 F192A) above, with A86F counted along it
Chain of active human MMP-9 enzyme active domain (P14780 107-449): as the sequence (P14780 107-449 F192A) above, with A86F counted along it
T10 sequence (P14780 107-449 Y423A): as the sequence (P14780 107-449 F192A) above, with A86F, Y317A counted along it
T3 sequence (P14780 107-449 L397A): as the sequence (P14780 107-449 F192A) above, with A86F, L291A counted along it
T4 sequence (P14780 107-449 Y179A): as the sequence (P14780 107-449 F192A) above, with Y73A, A86F counted along it
T5 sequence (P14780 107-449 E402Q): as the sequence (P14780 107-449 F192A) above, with A86F, E296Q counted along it
T9 sequence (P14780 107-449 Y393A): as the sequence (P14780 107-449 F192A) above, with A86F, Y287A counted along it
T11 sequence (P14780 107-449 V398A): as the sequence (P14780 107-449 F192A) above, with A86F, V292A counted along it
T16 sequence (P14780 107-449 Q199G): as the sequence (P14780 107-449 F192A) above, with A86F, Q93G counted along it
T15 sequence (P14780 107-449 Y420A): as the sequence (P14780 107-449 F192A) above, with A86F, Y314A counted along it
T8 sequence (P14780 107-449 D185A): as the sequence (P14780 107-449 F192A) above, with D79A, A86F counted along it
T6 sequence (P14780 107-449 P193A): as the sequence (P14780 107-449 F192A) above, with A86F, P87A counted along it
T1 sequence (P14780 107-449 R424T): as the sequence (P14780 107-449 F192A) above, with A86F, R318T counted along it
T14 sequence (P14780 107-449 F110A): as the sequence (P14780 107-449 F192A) above, with F4A, A86F counted along it
T13 sequence (P14780 107-449 L187A): as the sequence (P14780 107-449 F192A) above, with L81A, A86F counted along it

IC50 increase compared to wild type [1]: 2.7 times
IC50 increase compared to wild type [2]: 2.6 times
IC50 increase compared to wild type [3]: 3.5 times
IC50 increase compared to wild type [5]: 4.9 times
IC50 increase compared to wild type [7]: 6.5 times
IC50 increase compared to wild type [8]: 5.0 times
IC50 increase compared to wild type [9]: 19.0 times
IC50 increase compared to wild type [10]: > 57.6 times
IC50 increase compared to wild type [11]: > 20.0 times
IC50 increase compared to wild type [12]: 4.8 times
IC50 [13]: 0.017 ± 0.005 µM
B1: M91011: SPINK2 mutant active MMP-9-binding peptide, SEQ ID NO: 7 (FIG. 21) (protein)
chain: DPQFGLFSKYRTPNCMMYKYAQCSHKSQPVCGSDMSTYANECTLCMKIREGGHNIKIIRNGPC
modifications: binder
binding to active human MMP-9 enzyme active domain (peak shift) [4]: bind to the active human MMP-9 enzyme active domain
binding to human MMP-9 enzyme active domain E402Q mutant (peak shift) [6]: do not bind to human MMP-9 enzyme active domain E402Q mutant

IC50 increase compared to wild type [14]: 6.7 times
IC50 increase compared to wild type [2]: 2.6 times
IC50 increase compared to wild type [3]: 2.2 times
IC50 increase compared to wild type [5]: 3.2 times
IC50 increase compared to wild type [8]: > 57.8 times
IC50 increase compared to wild type [15]: 4.0 times
IC50 increase compared to wild type [16]: 3.1 times
IC50 increase compared to wild type [10]: 2.7 times
IC50 increase compared to wild type [11]: 13.2 times
IC50 increase compared to wild type [12]: 2.2 times
IC50 [13]: 0.017 ± 0.007 µM
IC50 increase compared to wild type [17]: 2.3 times
B2: M91005: SPINK2 mutant active MMP-9-binding peptide, SEQ ID NO: 5 (FIG. 19) (protein)
chain: DPQFGLFSKYRTPNCRKRGGPSCQMSYNPVCGSDMSTYANECTLCMKIREGGHNIKIIRNGPC
modifications: binder
binding to active human MMP-9 enzyme active domain (peak shift) [4]: bind to the active human MMP-9 enzyme active domain
binding to human MMP-9 enzyme active domain E402Q mutant (peak shift) [6]: do not bind to human MMP-9 enzyme active domain E402Q mutant
